How the values were obtained:
[1] = tested on: MRL/FAS^lpr mice; test: Clinical indicators (skin, lymphadenopathy, proteinuria scores) in an in vivo model of systemic lupus erythematosus; conditions: 9 weeks; for reduction in skin lesions compared to positive control (Mycophenolate) / skin lesions (skin score) compared to negative control (Vehicle): FIG. 2; for inhibitory effect on lymphadenopathy compared to positive control (Mycophenolate) / lymphadenopathy score compared to negative control (Vehicle): FIG. 3; for proteinuria compared to negative control (Vehicle): FIG. 4
Text: Specifically, the occurrence and severity of lupus were regularly observed from group allocation to the end of the experiment in the experimental animals from <1-1> and evaluated according to the criteria shown in [Table 2].

[2] = tested on: MRL/FAS^lpr mice; test: Histomorphological evaluation of renal tissue (H&E staining); type: in vivo; conditions: 9 weeks, FIG. 6; for inflammatory cell infiltration within the glomeruli: H&E
Text: Specifically, after the completion of the experiment, the experimental animals of <1-1> were sacrificed, and renal tissues were collected. The collected renal tissues were fixed and dehydrated in 10% formaldehyde and subsequently embedded in paraffin. The fixed renal tissues were sectioned to a thickness of 2 μm and stained with hematoxylin and eosin (H&E). The sectioned tissues were covered with a coverslip and observed under an optical microscope at 400× magnification. Four regions were imaged for each tissue, and two or more researchers assigned scores based on the evaluation items and criteria for histomorphological assessment shown in [Table 3]. The average of the researchers' scores was determined as the scoring value, and the mean of the scoring values for the four regions was calculated as the final score for each tissue.

[3] = tested on: anti-dsDNA antibodies; test: Plasma anti-dsDNA antibody levels (ELISA) in an in vivo model of systemic lupus erythematosus; design: species or system mice; conditions: 9 weeks, FIG. 8
Protocol: Anti-dsDNA antibodies are a type of antinuclear antibody (ANA) that target intracellular nuclear components and are present at high titers in systemic lupus erythematosus (SLE). These antibodies are associated with the persistent progression of kidney inflammation and damage.
Specifically, after the completion of the experiment, cardiac blood collection was performed on the experimental animals from <1-1>. The collected blood was allowed to coagulate for 30 minutes using a capillary blood collection tube (Cat. 365967, BD) and then centrifuged at 6,000×g for 10 minutes to obtain plasma. The obtained plasma was diluted at a ratio of 1:2,500, and the concentration of anti-dsDNA antibodies was measured using a Mouse Anti-dsDNA IgG Antibody ELISA Kit (Cat. 3031, Chondrex) according to the manufacturer's protocol.

[4] = tested on: MRL/FAS^lpr mice; test: IgG immunofluorescence staining of renal tissue; type: in vivo; conditions: 9 weeks, FIG. 7
Protocol: Additionally, the collected kidney tissues were frozen, sectioned at a thickness of 4 μm, and fixed in cold acetone for 5 minutes, followed by two washes with phosphate-buffered saline (PBS) for 5 minutes each. To eliminate non-specific reactions, blocking was performed for 30 minutes using a PBS solution containing 1% bovine serum albumin and 0.05% Tween-20. The sections were then incubated at room temperature for 1 hour with FITC-conjugated goat anti-mouse IgG antibody (1:200, AP308F, Merck Millipore). After three washes with PBS for 5 minutes each, nuclear staining was performed using DAPI, and the sections were covered with a cover glass using mounting medium. The samples were then examined using a confocal laser scanning microscope (C2 Plus, Nikon). […] Furthermore, it was confirmed that the glomerular lesion scores decreased in the positive control group (Mycophenolate) and the sGal-9 treatment groups (sGal-9 2 mg/kg and sGal-9 4 mg/kg) compared to the negative control group (Vehicle).

[5] = tested on: MRL/FAS^lpr mice; test: Spleen weight in an in vivo model of systemic lupus erythematosus; conditions: sGal-9 2 mg/kg SC once per week, 9 weeks, FIG. 5
Text: Additionally, after the completion of the experiment, the experimental animals from <1-1> were sacrificed, and the spleens were extracted for weight measurement.

[6] = sGal-9 2 mg/kg SC once per week
[7] = sGal-9 4 mg/kg SC once per week

B1: sGal-9: recombinant stabilized galectin-9 protein of Sequence No. 1: linker entirely deleted, CCRD positions 1 to 10 deleted, alanine 13 substituted with proline (protein)
chain: MAFSGSQAPYLSPAVPFSGTIQGGLQDGLQITVNGTVLSSSGTRFAVNFQTGFSGNDIAFHFNPRFEDGGYVVCNTRQNGSWGPEERKTHMPFQKGMPFDLCFLVQSSDFKVMVNGILFVQYFHRVPFHRVDTISVNGSVQLSYISFQHPPYPMPFITTILGGLYPSKSILLSGTVLPSAQRFHINLCSGNHIAFHLNPRFDENAVVRNTQIDNSWGSEERSLPRKMPFVRGQSFSVWILCEAHCLKVAVDGQHLFEYYHRLRNLPTINRLEVGGDIQLTHVQT
modifications: sGal-9
[1]; [6]
  reduction in skin lesions compared to positive control (Mycophenolate): more pronounced
  skin lesions (skin score) compared to negative control (Vehicle): reduced
  inhibitory effect on lymphadenopathy compared to positive control (Mycophenolate): more pronounced
  lymphadenopathy score compared to negative control (Vehicle): decreased
  proteinuria compared to negative control (Vehicle): decreased
[1]; [7]
  reduction in skin lesions compared to positive control (Mycophenolate): more pronounced
  skin lesions (skin score) compared to negative control (Vehicle): reduced
  inhibitory effect on lymphadenopathy compared to positive control (Mycophenolate): more pronounced
  lymphadenopathy score compared to negative control (Vehicle): decreased
  proteinuria compared to negative control (Vehicle): decreased
[2]; [6]
  glomerular lesion scores compared to negative control (Vehicle): decreased
  inflammatory cell infiltration within the glomeruli: reduction
[2]; [7]
  glomerular lesion scores compared to negative control (Vehicle): decreased
  inflammatory cell infiltration within the glomeruli: reduction
[3]; [6]
  concentration of anti-dsDNA antibodies in plasma compared to negative control (Vehicle): decreased
[3]; [7]
  concentration of anti-dsDNA antibodies in plasma compared to negative control (Vehicle): decreased
  reduction in anti-dsDNA antibody levels compared to positive control (Mycophenolate): superior reduction
[4]; [6]
  IgG deposition in the kidney compared to negative control (Vehicle): decreased
[4]; [7]
  IgG deposition in the kidney compared to negative control (Vehicle): decreased
[5]
  spleen weight compared to negative control (Vehicle): decreased
